Assay results published in paper PMC4773887.

Legend:
Test in all cases: EMSA
Conditions in all cases: EMSA: 10 fmol DNA, 300 uM ddGTP, 3 mM dCTP; 6% native PAGE in 0.5x TBE, 35 min, 180 V; binding buffer, salt, pH and temperature not stated (ref 59)
[1] = tested on: HsPOLγA D274A (exo-);HsPOLγB WT (Homo sapiens;Homo sapiens)
[2] = tested on: HsPOLγA H1134A (pol-);HsPOLγB WT (Homo sapiens;Homo sapiens)
[3] = tested on: HsPOLγA Q1102A (pol-);HsPOLγB WT (Homo sapiens;Homo sapiens)
[4] = tested on: HsPOLγA WT;HsPOLγB WT (Homo sapiens;Homo sapiens)

EMSA primer-template
Kd [1]: 2.8 nM | Kd [2]: 3.5 nM | Kd [3]: 3.8 nM | Kd [4]: 5.5 nM
